The labels stand for the following.
B2: VvRsbS, recombinant, untagged, co-expressed with VvRsbR (natural protein, Vibrio vulnificus CMCP6, UniProt A0A3Q0KX63 1-117, looked up)
chain: MTMQSAISISKLQDVLIASVQVDLTESTLRDFSLDLLDAVKSTRAKGVMIELSGVKTLDGESMHRLLDVVKTVEVMGRRCLLVGLRPGVVIGLMDIGIDLASTLCVADLEQGFLYLE
notes: VvRsbS of Vibrio vulnificus CMCP6, locus VV2_0074; STAS domain made up of 115 residues; also called VvRsbS2 (dimer)

Series [1] deals with the molecule itself. As to the kind of experiment: cryo-EM structure; purified, oxidized VvRsbR:VvRsbS complex (co-expressed in E. coli) at 0.3 mg/mL; single particle reconstructions in C1 and D2; homology models fitted into the map.
The target of series [2] is B2. As to the kind of experiment: quantification of fluorescently stained SDS-PAGE bands of the purified complex; purified VvRsbR:VvRsbS complex separated by SDS PAGE, stained with Krypton, Typhoon scanner, bands quantified with ImageQuant. As to conditions: both partners purified.

Here are results for 2 molecules from article PMC9237108, “The Vibrio vulnificus stressosome is an oxygen-sensor involved in regulating iron metabolism” (Communications Biology, 2022).

B1: VvRsbR, recombinant, untagged, co-expressed with VvRsbS (natural protein, Vibrio vulnificus CMCP6, UniProt A0A3Q0KX46 1-306, looked up)
chain: MSLGSVLNKVEDADELLKLHDLTEADLALIRKFGQIMVPKLDEYVKHFYDWLRNTPEYEQYFGDAQKLQRVQDSQVRYWKTFFDARIDSAYLKERRDVGEIHARVGLPLPTYFAGMNISMVIFTKRMYDGSLYSDEYSSLVTAFTKLLHLDTTIVVDTYSRLINKRISEQSEALLAMSTPVTMIWQDILMLPIVGIIDSKRAQDIMSAVLNKISENRAKIFIMDISGVAVVDTAVANHFIKITKATKLMGCDCLVSGVSPSIARTMVQLGINVGEVRTNATLRDALENAFKIVGLTVSGLKHFPHE
notes: VvRsbR of Vibrio vulnificus CMCP6, locus VV2_0073; full-length gene amplified from genomic DNA, expressed untagged from pJPF012; Carries a heme in its N-terminal globin coupled sensor domain; In PDB 7O01 the linker helix was modelled as poly-alanine; also called VvRsbR2 (dimer)
On to B1, for which the “stoichiometry N” value in series [1] is 2; in series [2] it was 2.4 VvRsbR:VvRsbS.
As for B2, the “stoichiometry N” value in series [1] was 2.
